Residue numbers refer to the chain shown, from its start. Numbers in names are those of the source.

The assay concerns the target T1, CD3 epsilon homodimer protein (UniProt P07766 23-126).
T1 construct: construct not described; homodimer as printed; also called CD3 (CD3 epsilon)
Kind of assay: SPR Biacore T200, CD3 epsilon homodimer immobilized; vs unaltered GLS3000.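 Note: antibody variants flowed as analyte over CD3 epsilon homodimer amine-coupled to a CM4 chip, at 25 °C in HBS-EP+ running buffer, fitted with Biacore T200 Evaluation Software.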

T1 sequence (P07766 23-126): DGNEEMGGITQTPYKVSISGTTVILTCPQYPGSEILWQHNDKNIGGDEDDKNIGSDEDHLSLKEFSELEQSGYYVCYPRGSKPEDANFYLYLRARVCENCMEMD

B1: GLS3000 N30H (Kabat) L chain altered form, one-arm antibody with CE115HA000 (antibody, human IgG1, kappa, L234A L235A, N297A, name in Kabat numbering)
heavy: QVQLVESGGGVVQPGRSLRLSCAASGFTFSNAWMHWVRQAPGKGLEWVAQIKAKSNNYATYYAESVKGRFTISRDDSKNSLYLQMNSLKTEDTAVYYCRYVHYGAYYGVDAWGQGTTVTVSSASTKGPSVFPLAPSSKSTSGGTAALGCLVKDYFPEPVTVSWNSGALTSGVHTFPAVLQSSGLYSLSSVVTVPSSSLGTQTYICNVNHKPSNTKVDKKVEPKSCDKTHTCPPCPAPEAAGGPSVFLFPPKPKDTLMISRTPEVTCVVVDVSHEDPEVKFNWYVDGVEVHNAKTKPREEQYASTYRVVSVLTVLHQDWLNGKEYKCKVSNKALPAPIEKTISKAKGQPREPQVYTLPPSRCELTKNQVSLSCAVKGFYPSDIAVEWESNGQPENNYKTTPPVLDSDGSFFLVSKLTVDKSRWQQGNVFSCSVMHEALHNHYTQKSLSLSPDYKDDDDK
chain: EPKSSDKTHTCPPCPAPELLGGPSVFLFPPKPKDTLMISRTPEVTCVVVDVSHEDPEVKFNWYVDGVEVHNAKTKPREEQYNSTYRVVSVLTVLHQDWLNGKEYKCKVSNKALPAPIEKTISKAKGQPREPQVCTLPPSRDELTKNQVSLWCLVKGFYPSDIAVEWESNGQPENNYKTTPPVLDSDGSFFLYSKLTVDKSRWQQGNVFSCSVMHEALHNRYTQKSLSLSP
light: DIVMTQSPLSLPVTPGEPASISCRSSQSLVHSNRHTYLHWYQQKPGQAPRLLIYKVSNRFSGVPDRFSGSGSGTDFTLKISRVEAEDVGVYYCGQGTQVPYTFGQGTKLEIKRTVAAPSVFIFPPSDEQLKSGTASVVCLLNNFYPREAKVQWKVDNALQSGNSQESVTEQDSKDSTYSLSSTLTLSKADYEKHKVYACEVTHQGLSSPVTKSFNRGEC
notes: one-arm antibody
B1: the “KD ratio to GLS3000 (Affinity up)” value amounted to 1.08.

B2: GLS3000 Q27E (Kabat) L chain altered form, one-arm antibody with CE115HA000 (antibody, human IgG1, kappa, L234A L235A, N297A, name in Kabat numbering)
heavy: B1 heavy
chain: B1 chain
light: B1 light with Q27E, H35N
notes: one-arm antibody
With B2, the “KD ratio to GLS3000 (Affinity up)” value came out at 0.99.

B3: GLS3000 Q27D (Kabat) L chain altered form, one-arm antibody with CE115HA000 (antibody, human IgG1, kappa, L234A L235A, N297A, name in Kabat numbering)
heavy: B1 heavy
chain: B1 chain
light: B1 light with Q27D, H35N
notes: one-arm antibody
Consider B3, for which the “KD ratio to GLS3000 (Affinity up)” value worked out at 0.89.

B4: GLS3000 N30W (Kabat) L chain altered form, one-arm antibody with CE115HA000 (antibody, human IgG1, kappa, L234A L235A, N297A, name in Kabat numbering)
heavy: B1 heavy
chain: B1 chain
light: B1 light with H35W
notes: one-arm antibody
Consider B4, for which the “KD ratio to GLS3000 (Affinity up)” value was found to be 0.97.

B5: GLS3000 R24A (Kabat) L chain altered form, one-arm antibody with CE115HA000 (antibody, human IgG1, kappa, L234A L235A, N297A, name in Kabat numbering)
heavy: B1 heavy
chain: B1 chain
light: B1 light with R24A, H35N
notes: one-arm antibody
Regarding B5, the “KD ratio to GLS3000 (Affinity up)” value is 1.

B6: GLS3000 Q27P (Kabat) L chain altered form, one-arm antibody with CE115HA000 (antibody, human IgG1, kappa, L234A L235A, N297A, name in Kabat numbering)
heavy: B1 heavy
chain: B1 chain
light: B1 light with Q27P, H35N
notes: one-arm antibody
B6: the “KD ratio to GLS3000 (Affinity up)” value was 2.16.

B7: GLS3000 R24D (Kabat) L chain altered form, one-arm antibody with CE115HA000 (antibody, human IgG1, kappa, L234A L235A, N297A, name in Kabat numbering)
heavy: B1 heavy
chain: B1 chain
light: B1 light with R24D, H35N
notes: one-arm antibody
As for B7, the “KD ratio to GLS3000 (Affinity up)” value stood at 0.83.

B8: GLS3000 N30R (Kabat) L chain altered form, one-arm antibody with CE115HA000 (antibody, human IgG1, kappa, L234A L235A, N297A, name in Kabat numbering)
heavy: B1 heavy
chain: B1 chain
light: B1 light with H35R
notes: one-arm antibody
With B8, the “KD ratio to GLS3000 (Affinity up)” value was found to be 1.73.

B9: GLS3000 N30Q (Kabat) L chain altered form, one-arm antibody with CE115HA000 (antibody, human IgG1, kappa, L234A L235A, N297A, name in Kabat numbering)
heavy: B1 heavy
chain: B1 chain
light: B1 light with H35Q
notes: one-arm antibody
For the molecule B9, the “KD ratio to GLS3000 (Affinity up)” value amounted to 1.

B10: GLS3000 N30K (Kabat) L chain altered form, one-arm antibody with CE115HA000 (antibody, human IgG1, kappa, L234A L235A, N297A, name in Kabat numbering)
heavy: B1 heavy
chain: B1 chain
light: B1 light with H35K
notes: one-arm antibody
B10: the “KD ratio to GLS3000 (Affinity up)” value is 1.35.

B11: GLS3000 N30Y (Kabat) L chain altered form, one-arm antibody with CE115HA000 (antibody, human IgG1, kappa, L234A L235A, N297A, name in Kabat numbering)
heavy: B1 heavy
chain: B1 chain
light: B1 light with H35Y
notes: one-arm antibody
Regarding B11, the “KD ratio to GLS3000 (Affinity up)” value was 1.03.

B12: GLS3000 R24E (Kabat) L chain altered form, one-arm antibody with CE115HA000 (antibody, human IgG1, kappa, L234A L235A, N297A, name in Kabat numbering)
heavy: B1 heavy
chain: B1 chain
light: B1 light with R24E, H35N
notes: one-arm antibody
B12: the “KD ratio to GLS3000 (Affinity up)” value came out at 0.89.

B13: GLS3000 N30T (Kabat) L chain altered form, one-arm antibody with CE115HA000 (antibody, human IgG1, kappa, L234A L235A, N297A, name in Kabat numbering)
heavy: B1 heavy
chain: B1 chain
light: B1 light with H35T
notes: one-arm antibody
For the molecule B13, the “KD ratio to GLS3000 (Affinity up)” value was 12.7.

B14: GLS3000 Q27L (Kabat) L chain altered form, one-arm antibody with CE115HA000 (antibody, human IgG1, kappa, L234A L235A, N297A, name in Kabat numbering)
heavy: B1 heavy
chain: B1 chain
light: B1 light with Q27L, H35N
notes: one-arm antibody
For the molecule B14, the “KD ratio to GLS3000 (Affinity up)” value is 0.86.

B15: GLS3000 N30P (Kabat) L chain altered form, one-arm antibody with CE115HA000 (antibody, human IgG1, kappa, L234A L235A, N297A, name in Kabat numbering)
heavy: B1 heavy
chain: B1 chain
light: B1 light with H35P
notes: one-arm antibody
Regarding B15, the “KD ratio to GLS3000 (Affinity up)” value is 12.1.

B16: GLS3000 N30S (Kabat) L chain altered form, one-arm antibody with CE115HA000 (antibody, human IgG1, kappa, L234A L235A, N297A, name in Kabat numbering)
heavy: B1 heavy
chain: B1 chain
light: B1 light with H35S
notes: one-arm antibody
With B16, the “KD ratio to GLS3000 (Affinity up)” value was 10.6.

B17: GLS3000 N30M (Kabat) L chain altered form, one-arm antibody with CE115HA000 (antibody, human IgG1, kappa, L234A L235A, N297A, name in Kabat numbering)
heavy: B1 heavy
chain: B1 chain
light: B1 light with H35M
notes: one-arm antibody
Take B17: the “KD ratio to GLS3000 (Affinity up)” value stood at 1.2.

B18: GLS3000 N53A (Kabat) L chain altered form, one-arm antibody with CE115HA000 (antibody, human IgG1, kappa, L234A L235A, N297A, name in Kabat numbering)
heavy: B1 heavy
chain: B1 chain
light: B1 light with H35N, N58A
notes: one-arm antibody
As for B18, the “KD ratio to GLS3000 (Affinity up)” value was 0.82.

B19: GLS3000 N30L (Kabat) L chain altered form, one-arm antibody with CE115HA000 (antibody, human IgG1, kappa, L234A L235A, N297A, name in Kabat numbering)
heavy: B1 heavy
chain: B1 chain
light: B1 light with H35L
notes: one-arm antibody
Turning to B19, the “KD ratio to GLS3000 (Affinity up)” value turned out to be 1.19.

B20: GLS3000 N30V (Kabat) L chain altered form, one-arm antibody with CE115HA000 (antibody, human IgG1, kappa, L234A L235A, N297A, name in Kabat numbering)
heavy: B1 heavy
chain: B1 chain
light: B1 light with H35V
notes: one-arm antibody
Regarding B20, the “KD ratio to GLS3000 (Affinity up)” value was determined as 2.62.

B21: GLS3000 N30I (Kabat) L chain altered form, one-arm antibody with CE115HA000 (antibody, human IgG1, kappa, L234A L235A, N297A, name in Kabat numbering)
heavy: B1 heavy
chain: B1 chain
light: B1 light with H35I
notes: one-arm antibody
As to B21, the “KD ratio to GLS3000 (Affinity up)” value amounted to 1.24.

B22: GLS3000 Q27R (Kabat) L chain altered form, one-arm antibody with CE115HA000 (antibody, human IgG1, kappa, L234A L235A, N297A, name in Kabat numbering)
heavy: B1 heavy
chain: B1 chain
light: B1 light with Q27R, H35N
notes: one-arm antibody
With B22, the “KD ratio to GLS3000 (Affinity up)” value is 1.06.

Source of the values: US20240270846A1 (published 2024).
